T1: NS1B CTD wt (Influenza B virus (B/Lee/1940), UniProt P03502 141-281)
T1 sequence: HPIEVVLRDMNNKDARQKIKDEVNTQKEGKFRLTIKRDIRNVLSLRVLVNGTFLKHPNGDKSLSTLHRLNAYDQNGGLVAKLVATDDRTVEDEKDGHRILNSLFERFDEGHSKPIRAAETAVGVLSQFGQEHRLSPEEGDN


How the values were obtained:
[1] = target: NS1B C-terminal domain (residues 141-281 of NS1B, influenza B/Lee/1940) (influenza B virus (B/lee/1940)) (UniProt P03502); experiment: NMR titration
[2] = target: NS1B C-terminal domain (residues 141-281 of NS1B, influenza B/Lee/1940) (influenza B virus (B/lee/1940)) (UniProt P03502); experiment: NMR rotational correlation time
NS1B CTD wt = target: T1, NS1B CTD wt; experiment: fluorescence polarization
NS1A CTD = NS1A CTD (Influenza A virus (Udorn), UniProt P03495 85-215); experiment: fluorescence polarization
Sequence of NS1A CTD (P03495 85-215): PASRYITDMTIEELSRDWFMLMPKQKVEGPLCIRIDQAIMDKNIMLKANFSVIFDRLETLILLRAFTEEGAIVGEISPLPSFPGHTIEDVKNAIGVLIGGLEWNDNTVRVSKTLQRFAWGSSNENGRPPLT

| Molecule | Kd [1] | Kd [2] | stoichiometry N [2] | Kd (NS1B CTD wt) | binding result (NS1A CTD) |
| --- | --- | --- | --- | --- | --- |
| NS1B C-terminal domain (residues 141-281 of NS1B, influenza B/Lee/1940) (from UniProt P03502 141-281) (domain or fragment) | 600 µM | 700 µM | 2 |  |  |
| CGCCUGUAGAGGAUGG (ssRNA) [16 minus ssRNA (antisense)] |  |  |  | 0.58 ± 0.05 µM |  |
| 16-bp dsRNA (dsRNA) RNA 1: CGCCUGUAGAGGAUGG RNA 2: CCAUCCUCUACAGGCG |  |  |  | 0.13 ± 0.03 µM | no binding |

— publication PMC5014651
